Target: T1, GST-zyxin(1-142) (UniProt Q15942 1-142)
T1 construct: Expressed in E. coli; also called zyxin derivative; GST fusion protein with the N-terminus of zyxin; not shown: glutathione S-transferase
T1 sequence (looked up): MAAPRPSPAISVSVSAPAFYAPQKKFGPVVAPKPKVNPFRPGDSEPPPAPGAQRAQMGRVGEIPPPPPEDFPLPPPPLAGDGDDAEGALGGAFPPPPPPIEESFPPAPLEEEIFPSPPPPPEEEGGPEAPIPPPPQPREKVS
Assay: solid-phase assay (DELFIA) in 384-well plates, 20 µl per well, GST-zyxin(1-142) coated, VASP as ligand
Procedure: In the solid-phase assay, a binding partner (VASP or zyxin) was immobilized on the surface of a microtiter plate (MTP) (=coating). The unsaturated binding sites on the surface of the plastic were blocked, and the surface was then incubated with the respective other binding partners. After the incubation, excess unattached protein was removed in a washing step. Using suitable antibodies, it was now possible to detect and quantify the specifically bound protein. Here, it was possible to improve the signal-noise (S/N) ratio considerably by using lanthanide chelates as fluorescent labels for the antibodies and the measurement of the time-resolved fluorescence.
The volume per well used depended on the selected MTP format (50 µl or 100 µl for 96-well plates, 20 µl for 384-well plates).

B1: recombinant human VASP protein with complete amino acid sequence obtained from insect cells (other, UniProt P50552 2-380, looked up)
chain: SETVICSSRATVMLYDDGNKRWLPAGTGPQAFSRVQIYHNPTANSFRVVGRKMQPDQQVVINCAIVRGVKYNQATPNFHQWRDARQVWGLNFGSKEDAAQFAAGMASALEALEGGGPPPPPALPTWSVPNGPSPEEVEQQKRQQPGPSEHIERRVSNAGGPPAPPAGGPPPPPGPPPPPGPPPPPGLPPSGVPAAAHGAGGGPPPAPPLPAAQGPGGGGAGAPGLAAAIAGAKLRKVSKQEEASGGPTAPKAESGRSGGGGLMEEMNAMLARRRKATQVGEKTPKDESANQEEPEARVPAQSESVRRPWEKNSTTLPRMKSSSSVTTSETQPCTPSSSDYSDLQRVKQELLEEVKKELQKVKEEIIEAFVQELRKRGSP
notes: mature; also called baculo VASP; vasodilator-stimulated phosphoprotein
Work on B1 yielded a S/N ratio of roughly 100.
